Assay results published in article PMC10017804.

Target: photosystem II (PSII) complex of Porphyridium purpureum (P. purpureum (endogenous in P. purpureum cells))
Assay: cryo-EM structure; in situ, single cryo-EM images (no tilt series) of FIB-milled P. purpureum cellular lamellae; particles localized by GisSPA, then 3D classification and local refinement

photosystem II (PSII) complex of Porphyridium purpureum
stoichiometry N: 4
